Retention time data for one substance are collected here from patent US20230242677A1.

The assay deals with Protein A (Staphylococcus aureus) (UniProt P38507). The experiment in a line: Protein A interaction assay (POROS A column HPLC), acidic elution.

In the case of hu IgG (positive control) (antibody), the retention time came to 31.3 min.
